Biological target: T1, microsomal triglyceride transfer protein (MTTP), endogenous, in mouse intestinal epithelial cell lysates (mouse, UniProt O08601 22-894, limits assumed)
T1 construct: Endogenous protein in IEC or intestinal cell lysates of control, PRAP1-/- or E85V mice
T1 sequence (looked up): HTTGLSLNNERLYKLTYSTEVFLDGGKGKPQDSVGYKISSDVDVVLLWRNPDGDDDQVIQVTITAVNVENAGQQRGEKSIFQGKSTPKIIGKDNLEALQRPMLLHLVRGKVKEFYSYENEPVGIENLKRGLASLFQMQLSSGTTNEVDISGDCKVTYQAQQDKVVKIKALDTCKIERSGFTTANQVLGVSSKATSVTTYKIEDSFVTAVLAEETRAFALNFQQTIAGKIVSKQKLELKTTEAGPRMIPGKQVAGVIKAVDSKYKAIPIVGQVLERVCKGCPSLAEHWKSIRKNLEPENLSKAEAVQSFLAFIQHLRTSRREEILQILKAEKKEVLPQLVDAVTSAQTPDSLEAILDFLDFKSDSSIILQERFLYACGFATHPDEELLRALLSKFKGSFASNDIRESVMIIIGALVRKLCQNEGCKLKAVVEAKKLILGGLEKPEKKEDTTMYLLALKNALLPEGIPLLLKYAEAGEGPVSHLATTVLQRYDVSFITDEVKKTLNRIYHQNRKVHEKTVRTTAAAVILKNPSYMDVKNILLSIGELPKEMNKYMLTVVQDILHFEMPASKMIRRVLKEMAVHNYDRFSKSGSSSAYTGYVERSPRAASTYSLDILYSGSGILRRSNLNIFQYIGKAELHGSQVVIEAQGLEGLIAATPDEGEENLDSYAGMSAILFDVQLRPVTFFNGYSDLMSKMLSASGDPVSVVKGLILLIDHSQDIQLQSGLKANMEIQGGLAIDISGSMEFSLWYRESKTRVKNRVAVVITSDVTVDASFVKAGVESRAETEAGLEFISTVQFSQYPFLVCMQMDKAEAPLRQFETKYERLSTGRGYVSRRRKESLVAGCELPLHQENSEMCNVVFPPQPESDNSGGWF
Experiment: co-immunoprecipitation from IEC lysates with PRAP1- or MTTP-specific antibody, immunoblot
Method: FIGS. 2A to 2H depict that PRAP1 formed a complex with microsomal triglyceride transfer protein (MTTP) and was involved in MTTP-mediated lipid transfer according to Example 2 of the present disclosure. FIG. 2A: Total intestinal cell lysates from control (WT), PRAP1^{-/-} (KO) or the E85V mutant mice (E85V) were immunoprecipitated with MTTP- or PRAP1-specific antibody, and the immune complexes (lanes 4-6) along with 1/50 input lysates as indicated were analyzed by immunoblotting using MTTP or PRAP1 antibodies. FIGS. 2B and 2C: Recombinant PRAP1 (rPRAR1, i.e., PRAP1ΔN20; designated as “rWT” in FIGS. 2B and 2C) stimulated the triglyceride (TG; FIG. 2B) and phospholipid (FIG. 2C) transfer activity of MTTP in the intestinal epithelial cells (IECs) purified from PRAP1^{-/-} mice. FIG. 2D: Immunoblotting analysis of MTTP expression in the intestinal cell lysates of control (PRAP1^{+/+}) or PRAP1^{-/-} mice. FIGS. 2E and 2F: MTTP-mediated transfer of TG (FIG. 2E) or phospholipid (FIG. 2F) was determined in PRAP1-deficient (PRAP1^{-/-}) IEC homogenates that had been pre-incubated with 10 μg of recombinant WT PRAP1 or the indicated mutant of PRAP1 (all without N-terminal 20 aa). […] N=3-4 for each panel. *, p<0.05; **, p<0.01; ***, p<0.001; n.s., p>0.05. FIGS. 2B, 2C, 2G and 2H: compared to the activity of PRAP1^{+/+} (bar 1). FIGS. 2E and 2F: compared to the activity in PRAP^{-/-} (bar 2). […]

binding result: no binding
B1: endogenous E85V mutant PRAP1 in intestinal epithelial cells of E85V knock-in mice (other)
chain: APAHQVPVKTKGKHVFPEQETEKVWDTRALEPLEKDNQLGPLLPEPKQKPAAAEEKRPDAMTWVVTEDILSHLRSPLQGPELDLDSIDHPMSDDVQDEEVPQSRPILYRQVLQGPEEDLDHLAHSMEDS
notes: Endogenous protein in lysates of PRAP1 E85V/E85V mice; The 20-aa signal peptide is called putative; also called E85V mutant of PRAP1; mouse E85V mutant PRAP1

Reference: patent publication US20230069835A1 (ACADEMIA SINICA, published 2023)
